System: MS2 coat protein
Assay: apparent KD of MS2 coat protein; designed switch direction (-1 OFF switch, 1 ON switch): 1; higher = weaker reporter binding
In short: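 The reported apparent KD is a per-design median over clusters, from curve fits of normalised cluster fluorescence. Protein titrations used SNAP-549-labelled MS2 coat protein, doubled from 0.7 or 1.5 nM to 3 µM, in Tris-HCl pH 7.5 buffer with KCl, MgCl2, BSA, DTT, tRNA and Tween-20, with no input, 200 uM small-molecule ligand, or an oligonucleotide input. The RNA switches were transcribed on Illumina chips by stalled E. coli RNA polymerase.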

[1] = input ligand: microRNA oligo, concentration not stated
[2] = Eterna round: R95, input ligand: FMN 200 uM
[3] = Eterna round: R95, input ligand: microRNA oligo, concentration not stated
[4] = Eterna round: R95, input ligand: none

Sequence	apparent KD of MS2 coat protein (input ligand: FMN 200 uM) [nM]	apparent KD of MS2 coat protein [1] [nM]	apparent KD of MS2 coat protein (input ligand: none) [nM]	apparent KD of MS2 coat protein [2] [nM]	apparent KD of MS2 coat protein [3] [nM]	apparent KD of MS2 coat protein [4] [nM]
AGCCGAGACACAGGAUAUAGAUAUCUACAUGAGGAUCACCCAUGUAGCAACACGUGGUAGUGAUACUAGAAGGGUGCUCGGCGC [Omei SS(NG)2 Cv9] (Eterna round: R96, puzzle: Same State NG 2)	20.2	60	73.1			
GCGCAGCUGGGUGAGGAUAUCGGUGGUAAAACAUGAGGAUCACCCAUGUCCGAAGCUCGGACUUCCGAGAAGGCGCCCGGCUGCA [Ridigea] (puzzle: Same State 2)				13	72.3	115
GCUCGCACGAUGACCCACAUGAGGAUCACCCAUGUGUGUGGGUAGGAUAUCUAUAUUAAGGAUUUAGAGAAGGGCCGAGCGAGC [SameState NG3 #22] (Eterna round: R96, puzzle: Same State NG 3)	450	419	578			
GACGAGGUGGGAGGAUAUAGCCCGUGGACUGUACCCGAACAUGAGGAUCACCCAUGUCGAGAAACCUAGAAGGCCUACAACGUA [Eternabot solution 11] (Eterna round: R96, puzzle: Same State NG 2)	16.8	10.8	38.4			
AGUCCAGCCUAAGCUGGACAAAAGCAUGUACAUGAGGAUCACCCAUGUUCAUGUACAAGCUUUUUGCAAGUCAAAAU [Mat - hsa-mir-208a - Mod of JL - 79] (puzzle: Sensor for hsa-mir-208a)				1050	19.3	1050
AAUUAAGAUCAAGGAUAUCACGUCGUUUAGACGUGAGAAGGUGAUCAUAACAUGAGGAUCACCCAUGUAUUACAUGAAUUAAUU [SSNG1/2-B3] (Eterna round: R96, puzzle: Same State NG 1)	72.4	404	370			
UGUCCAGCCUGUGCUGGUCUUUUGCAUGUACAUGAGGAUCACCCAUGUCGUGUUCAUGCUUUUUGCUCGUCUUUAAA [Photon Torp-02] (puzzle: Sensor for hsa-mir-208a)				49.7	17.2	53.5
ACAUGAAAUUUAGGAUAUUUUGUACCUACAUGUGACAUGAGGAUCACCCAUGUGGUAAGUAUAAGAAAGAAGGAAAAGAUAUGU [Equivalence 8 - Jieux - Same State NG 2] (Eterna round: R96, puzzle: Same State NG 2)	61.1	41.2	64.9			
GAGAGAGGAAGCGAGGAUAUCGUGUUGAGUACAUGAGGAUCACCCAUGUUGUAGGUAGAGGUAGGCGAGAAGGCGCAGGAGAGGG [JR_SS2_Sub099] (puzzle: Same State 2)				43	43.2	51
AGUCCAGCAUAAGCUGGACAAAAGCAUGUACAUGAGGAUCACCCAUGUUCAUGUACAAGCUUUUUGCAAGUCAAAAU [Mat - hsa-mir-208a - Mod of JL - 82] (puzzle: Sensor for hsa-mir-208a)				374	18	734
GAGUGGUAGAGAGGAUAUGCAUUGUUAUUCACUGUAGAAGGUUUUAACAUGAGGAUCACCCAUGUAGGACUAUUCCUGUGUUUU [Parity 62 - Jieux - Same State NG 1] (Eterna round: R96, puzzle: Same State NG 1)	16.3	13.3	18.4			
UACAAUCUAUCUGAGGAUAUCAUGAAAAAAACAUGAGGAUCACCCAUGUGCAGGAAAACUGCAUAUGAGAAGGCAGAUAGAUUGC [salish99_SS2_r3_008] (Eterna round: R96, puzzle: Same State 2)		458				
UUCUCCUUUUUUUACAUGAGGAUCACCCAUGUUUUUCUUACGUAGGAUAUCGUUGAGUGUUUGUACGAGAAGGACGUAGUAAGU [JR_SSND3_Sub059] (Eterna round: R96, puzzle: Same State NG 3)	37.9	50.5	67.9			
UUAAUAAUGUAAGGAUAUACAUGAGGAUUUCUCGUAGAAGGUACAGGACAUGAGGAUCACCCAUGUAUCGCUCCGUAGAGCGUA [Mat - Same State NG 1 - JL mod - D23] (Eterna round: R96, puzzle: Same State NG 1)	601	228	299			
GUUACAUGAGGAUCACCCAUGUAUGUGUGGGAGUAAGUGUCUUAGGAUAUCUAUUAUUUAAAUUAAGAGAAGGAAGAUUGUUGU [JMF's solution 7] (Eterna round: R96, puzzle: Same State NG 3)		93				
GAUUAACAUGAGGAUCACCCAUGUCGUUUAAUGGGAGGAUAUACGUGGACCGUAGUCCGCGUAGAAGGCCUAAUUG [JL-ss1-3.22 janelle mod] (Eterna round: R96, puzzle: Same State 1)	31.5	48.3	77.4			

Sequence	apparent KD of MS2 coat protein (input ligand: FMN 200 uM) [nM]	apparent KD of MS2 coat protein [1] [nM]	apparent KD of MS2 coat protein (input ligand: none) [nM]	apparent KD of MS2 coat protein [2] [nM]	apparent KD of MS2 coat protein [3] [nM]	apparent KD of MS2 coat protein [4] [nM]
UAAUGUUUGCGAGGAUAUCGUUUAUUGAAGUUACGAGAAGGCGCUCUUCUUACAUGAGGAUCACCCAUGUCUGUUUUGCAUGAU [JR_SSNG1_Sub069] (Eterna round: R96, puzzle: Same State NG 1)	44.4	56.8	81.5			
CUUCGGAAGCGAGGAUAUGCAGAGGAUCACCCUGCAGAAGGCGCAAAAGCGAGGAUAUGCAGAGGAUCACCCUGCAGAAGGCGC [pwkr ssNG DX.34] (Eterna round: R96, puzzle: Same State NG 1)	43	15.7	32.4			
GAGUGGUAGGGAGGAUAUGCAUUGUUAUUAAAUGCAGAAGGUUUUAACAUGAGGAUCACCCAUGUAGGACUAUUCCUGUGUUUC [Parity 67 - Jieux - Same State NG 1] (Eterna round: R96, puzzle: Same State NG 1)	12.4	12.7	16.9			
ACUCUCACAGUAGGAUAUGUAGGAUAUGCCUACAUGAGGAUCACCCAUGUAAACAUGGCAGAAGGAUAGAAGGACUGACAUGGG [pwkr ssNG2 2FMN + 1F5.3] (Eterna round: R96, puzzle: Same State NG 2)	274	233	278			
GGGAGAGGCGCAGGAUAUGGUGAGGAUCACCCACUAGAAGGGUGCACAUGAGAAUCGAACAUGAGGAUCACCCAUGUUCUGAGC (Eterna round: R96, puzzle: Same State NG 1)	560	162	348			
GCGCAGCUGGGUGAGGAUAUCGGUGGUAAAACAUGAGGAUCACCCAUGUCCGGAGCUCGGACUUCCGAGAAGGCACCCGGCUGCA [Erisais] (puzzle: Same State 2)					27.2	
CGUCGUUUGAUAGGAUAUCGCUAUACAUGAGGAUCACCCAUGUUUACCACGCUGGUUUUUCAUACCGAGAAGGAUUCUGAUGUU [salish99_SSNG02_r04_016] (Eterna round: R96, puzzle: Same State NG 2)	49.8	42.4	44.1			
AUUUUUAAUGCAGGAUAUGAUUAACAUGAGGAUCACCCAUGUGGUGUUGUGAGUAAGGAGAGUGAUCAGAAGGGCAUUUUUUUC [JMF's solution 91] (Eterna round: R96, puzzle: Same State NG 2)	888	274	502			
GGUCCAGCCUGAGCUGGACAAAAGCAUGUACAUGAGGAUCACCCAUGUCAUGUACAAGCUUUUUGCUCGUCAGAAAG [Mat - hsa-mir-208a - 98] (puzzle: Sensor for hsa-mir-208a)				62.7	16.9	89.8
CAAUAAAACACAGGAUAUACAGCCAGCCAGGCUGUAGAAGGGUGAGACAUGAGGAUCACCCAUGUACAAGUCGUAGGACUUGGG [Edlaticeen] (Eterna round: R96, puzzle: Same State NG 1)	1030	47.7	163			
AUUUAACAAGCUUUUUGCUCGUCUUAUAAACAUGAGGAUCACCCAUGUAAUAGCGUGAGAGUAAUUAAUUAAAUAAU [JMF 90] (puzzle: Sensor for hsa-mir-208a)				14.6	46.9	13.3
GGUAGGUUACUACCAAACAACAUGAGGAUCACCCAUGUGUGGAAGGAUAUGGUACCUAUUUGGUACCAGAAGGUCCAAUUAAUU [Fiskers NG3ss - 4] (Eterna round: R96, puzzle: Same State NG 3)	72.3	36.4	63.1			
GGUGCAAUAAACGCCUACAUGAGGAUCACCCAUGUAUGUAGGCAGGAUAUCGUAUGCAAAGCAUACGAGAAGGGCUGUAGUACC [Mat - Same State NG 3 - JL Mod - D42] (Eterna round: R96, puzzle: Same State NG 3)	53.7	116	118			
CCAAUGUACAAUUUAGAUCUACAUGAGGAUCACCCAUGUACAGAGGAUAUCAGCUCGAUUAGAGCUGAGAAGGCUGAAUUAAUU [SSNG3/3-A2] (Eterna round: R96, puzzle: Same State NG 3)	137	135	266			
UAGUGAUUGCAAGGAUAUGCUUGUGUUUUAUUUUUUUUAAUAUCUAACAUGAGGAUCACCCAUGUGCAGAAGGUGCUUGAUUUG [JR_SSNG2_Sub076] (Eterna round: R96, puzzle: Same State NG 2)		46.5				

From the supplement of paper PMC9170038
